Results reported in patent publication US20240116985A1 (published 2024).
Starred links: 1 amine or outer side, 2 acyl side, 3 side chain; linkers in the order of their positions; H or OH if unused. Positions of bridges follow the written chain, without caps; N, C: chain ends. Non-standard residues stand in square brackets, D forms with d. Primed or numbered codes have the meaning given here. *: point of attachment. PyrS2″ = (S)-3-amino-1-((pent-4-en-1-yloxy)carbonyl)pyrrolidine-3-carboxylic acid (stapling residue), C=CCCCOC(=O)N1CC[C@@](N[*:1])(C(=O)[*:2])C1; (bismethoxyethylamine)GlnR = [bismethoxyethylamine]GlnR, N5,N5-bis(2-methoxyethyl)-L-glutamine, COCCN(CCOC)C(=O)CC[C@H](N[*:1])C(=O)[*:2]; B5(4) = 2,2-bis(4-pentenyl)glycine = 2-amino-2-(pent-4-en-1-yl)hept-6-enoic acid (stitching residue), C=CCCCC(CCCC=C)(N[*:1])C(=O)[*:2]; (AcPpz)GlnR = [AcPpz]GlnR, (S)-5-(4-acetylpiperazin-1-yl)-2-amino-5-oxopentanoic acid, CC(=O)N1CCN(C(=O)CC[C@H](N[*:1])C(=O)[*:2])CC1; (4Pippip)GlnR″ = (S)-5-([1,4'-bipiperidin]-1'-yl)-2-amino-5-oxopentanoic acid, O=C(CC[C@H](N[*:1])C(=O)[*:2])N1CCC(N2CCCCC2)CC1; PyrS2 = (S)-3-amino-1-((pent-4-en-1-yloxy)carbonyl)pyrrolidine-3-carboxylic acid, C=CCCCOC(=O)N1CC[C@@](N[*:1])(C(=O)[*:2])C1; PyrS1 = (S)-3-amino-1-((but-3-en-1-yloxy)carbonyl)pyrrolidine-3-carboxylic acid, C=CCCOC(=O)N1CC[C@@](N[*:1])(C(=O)[*:2])C1; PyrS = (S)-1-((allyloxy)carbonyl)-3-aminopyrrolidine-3-carboxylic acid, C=CCOC(=O)N1CC[C@@](N[*:1])(C(=O)[*:2])C1; (Morph)GlnR″ = [Morph]GlnR, (S)-2-amino-5-morpholino-5-oxopentanoic acid, O=C(CC[C@H](N[*:1])C(=O)[*:2])N1CCOCC1; MorphAsn = (S)-2-amino-4-morpholino-4-oxobutanoic acid, O=C(C[C@H](N[*:1])C(=O)[*:2])N1CCOCC1; B6 = 2-amino-2-(hex-5-en-1-yl)oct-7-enoic acid, C=CCCCCC(CCCCC=C)(N[*:1])C(=O)[*:2]; Me2Asn = listed as N4-methyl-L-asparagine, CNC(=O)C[C@H](N[*:1])C(=O)[*:2]; 5hexenyl = N-terminal hex-5-enoic acid (acyl cap), C=CCCCC(=O)*; Phe(3-COOH) = N[C@@H](Cc1cccc(C(=O)O)c1)C(=O)O; Phe(2-CF3) = N[C@@H](Cc1ccccc1C(F)(F)F)C(=O)O; Bta = N[C@@H](Cc1csc2ccccc12)C(=O)O; αAllylPro = C=CC[C@@]1(C(=O)O)CCCN1; Morpholinoacetyl = O=C(CN1CCOCC1)*; tBuAla = CC(C)(C)C[C@H](N)C(=O)O; 3Thi = N[C@@H](Cc1ccsc1)C(=O)O; Cha = N[C@@H](CC1CCCCC1)C(=O)O; AllylGly = C=CC[C@H](N)C(=O)O; BnBoroleK = not defined here; PyrS2(4) = not defined here; TfeGA″ = not defined here; Nle = CCCC[C@H](N)C(=O)O; Abu = CC[C@H](N)C(=O)O; Aib = CC(C)(N)C(=O)O

T1: B-cat-Halo (beta-catenin HaloTag construct expressed in HEK293 cells) (UniProt P35222 1-781)
T1 sequence (looked up): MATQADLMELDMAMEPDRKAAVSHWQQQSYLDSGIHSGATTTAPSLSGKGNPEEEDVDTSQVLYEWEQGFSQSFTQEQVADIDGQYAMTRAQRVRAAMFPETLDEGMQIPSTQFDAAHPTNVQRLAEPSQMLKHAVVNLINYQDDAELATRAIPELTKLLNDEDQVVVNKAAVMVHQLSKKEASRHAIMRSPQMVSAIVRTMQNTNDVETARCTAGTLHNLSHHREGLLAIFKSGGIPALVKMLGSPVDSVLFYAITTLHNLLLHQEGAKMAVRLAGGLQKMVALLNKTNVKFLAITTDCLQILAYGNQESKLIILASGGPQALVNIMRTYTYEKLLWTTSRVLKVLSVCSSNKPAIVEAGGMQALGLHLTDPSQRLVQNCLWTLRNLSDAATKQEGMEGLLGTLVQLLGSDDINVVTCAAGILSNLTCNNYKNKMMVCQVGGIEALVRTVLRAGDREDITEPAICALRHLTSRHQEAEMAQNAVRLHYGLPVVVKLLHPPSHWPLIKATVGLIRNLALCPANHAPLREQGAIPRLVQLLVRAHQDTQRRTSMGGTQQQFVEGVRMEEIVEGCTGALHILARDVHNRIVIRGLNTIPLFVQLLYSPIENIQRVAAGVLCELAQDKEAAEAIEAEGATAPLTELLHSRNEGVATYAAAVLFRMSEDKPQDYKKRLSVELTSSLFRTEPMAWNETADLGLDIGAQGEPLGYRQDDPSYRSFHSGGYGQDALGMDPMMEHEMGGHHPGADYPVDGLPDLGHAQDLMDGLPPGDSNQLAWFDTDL

T2: B-cat-Halo (beta-catenin HaloTag construct expressed in HEK293 cells) (UniProt P35222 1-781)
T2 sequence (looked up): T1 sequence (looked up)

T3: B-cat-Halo (beta-catenin HaloTag fusion expressed in HEK293 cells) (UniProt P35222 1-781)
T3 sequence (looked up): T1 sequence (looked up)

B1: I-2529 (peptide)
peptide: 5hexenyl-[αAllylPro]D[AllylGly][B5(4)]D[Phe(3-COOH)]AAFL[PyrS2″][Phe(2-CF3)][Bta]Q-NH2
modifications: staple (positions not given here); not fully specified (bridges); printed as 5hexenyl-PL3-Asp-AllylGly-B5-Asp-3COOHF-Ala-Ala-Phe-Leu-PyrS2-2F3MeF-BztA-Gln-NH2; also: staple C=C reduced to CH2-CH2, staple partners not given here
B2: I-2523 (peptide)
peptide: Ac-[αAllylPro]N[Cha][B5(4)]DQKAFL[PyrS2]F[Bta][MorphAsn]-NH2
modifications: staple 1-4, 4-11; not fully specified (residue 7); printed as Ac-PL3-Asn-Cha-B5-Asp-Gln-[Phc]Lys-Ala-Phe-Leu-PyrS2-Phe-BztA-MorphAsn-NH2
B3: I-2190 (peptide)
peptide: Ac-[αAllylPro]D[tBuAla][B5(4)]D[Phe(3-COOH)]SAFL[PyrS2(4)][3Thi][Bta]V-NH2
modifications: staple 1-4, 4-11; reading uncertain; also: printed as Ac-PL3-Asp-Npg-B5-Asp-3COOHF-Ser-Ala-Phe-Leu-PyrS2-3Thi-BztA-Val-NH2
B4: I-2188 (peptide)
peptide: Ac-[αAllylPro]D[tBuAla][B5(4)]D[Phe(3-COOH)][Me2Asn]AFL[PyrS2(4)][3Thi][Bta]A-NH2
modifications: staple 1-4, 4-11; reading uncertain; also: printed as Ac-PL3-Asp-Npg-B5-Asp-3COOHF-Me2Asn-Ala-Phe-Leu-PyrS2-3Thi-BztA-Ala-NH2

Target: T1, B-cat-Halo (beta-catenin HaloTag …)
Test: cell-based or functional assay

NanoBRET Abs IC50 (uM); Bcat-Halo / TCF4-Luc in HEK293 cells | Binder
4.5 µM | Ac-[αAllylPro]D[tBuAla][B5(4)]D[Phe(3-COOH)]AAFL[PyrS2″][Phe(2-CF3)][Bta][Me2Gln]-NH2 (staple 1-4, 4-11) [I-2532]
> 20 µM | Ac-[αAllylPro]N[Cha][B5(4)]DQK(mPEG4)AFL[PyrS2]F[Bta][MorphAsn]-NH2 (staple 1-4, 4-11) [I-2526]
33.2 µM | B1
> 20 µM | Ac-[αAllylPro]N[Cha][B5(4)]DQK(Morpholinoacetyl)AFL[PyrS2]F[Bta][MorphAsn]-NH2 (staple 1-4, 4-11) [I-2527]
> 20 µM | B2
> 20 µM | Ac-[αAllylPro]D[tBuAla][B6]D[Phe(3-COOH)]AAFL[PyrS][Phe(2-CF3)][Bta]Q-NH2 (staple 1-4, 4-11) [I-2518]
> 20 µM | Ac-[αAllylPro]N[Cha][B5(4)]DQK(Ac)AFL[PyrS2]F[Bta][MorphAsn]-NH2 (staple 1-4, 4-11) [I-2522]
> 20 µM | Ac-[αAllylPro]D[tBuAla][B6]D[Phe(3-COOH)]QAFL[PyrS2][Phe(2-CF3)][Bta]A-NH2 (staple 1-4, 4-11) [I-2515]
7.8 µM | Ac-[αAllylPro]D[tBuAla][B6]D[Phe(3-COOH)]QAFL[PyrS1][Phe(2-CF3)][Bta]A-NH2 (staple 1-4, 4-11) [I-2510]
> 20 µM | Ac-[αAllylPro]D[tBuAla][B6]D[Phe(3-COOH)]AAFL[PyrS2][Phe(2-CF3)][Bta]Q-NH2 (staple 1-4, 4-11) [I-2513]
30 µM | Ac-[αAllylPro]D[tBuAla][B6]D[Phe(3-COOH)]QAFL[PyrS2][Phe(2-CF3)][Bta]A-NH2 (staple 1-4, 4-11) [I-2517]

Target: T2, B-cat-Halo (beta-catenin HaloTag …)
Test: cell-based or functional assay

NanoBRET Abs IC50 | Binder
39.9 µM | Ac-[αAllylPro]D[tBuAla][B5(4)]D[Phe(3-COOH)][Nle]AFL[PyrS2″][3Thi][Bta][tBuAla]-NH2 (staple 1-4, 4-11) [I-2193]
39.3 µM | Ac-[αAllylPro]D[tBuAla][B5(4)]D[Phe(3-COOH)][Me2Asn]AFL[PyrS2″][3Thi][Bta][tBuAla]-NH2 (staple 1-4, 4-11) [I-2196]
29.5 µM | Ac-[αAllylPro]D[tBuAla][B5(4)]D[Phe(3-COOH)][Me2Asn]AFL[PyrS2″][3Thi][Bta]V-NH2 (staple 1-4, 4-11) [I-2191]
8.8 µM | Ac-[αAllylPro]D[tBuAla][B5(4)]D[Phe(3-COOH)][Aib]AFL[PyrS2″][3Thi][Bta][tBuAla]-NH2 (staple 1-4, 4-11) [I-2194]
33.4 µM | B3
16.1 µM | Ac-[αAllylPro]D[tBuAla][B5(4)]D[Phe(3-COOH)]QAFL[PyrS2″][3Thi][Bta][tBuAla]-NH2 (staple 1-4, 4-11) [I-2192]
10.8 µM | Ac-[αAllylPro]D[tBuAla][B5(4)]D[TfeGA″]AAFL[PyrS2(4)][3Thi][Bta][BnBoroleK]-NH2 (staple 1-4, 4-11; reading uncertain; also: later-eluting HPLC isomer peak) [I-2187]
33.4 µM | Ac-[αAllylPro]D[tBuAla][B5(4)]D[Phe(3-COOH)][Nle]AFL[PyrS2″][3Thi][Bta]V-NH2 (staple 1-4, 4-11) [I-2189]
7.6 µM | B4
21 µM | Ac-[αAllylPro]D[tBuAla][B5(4)]D[Phe(3-COOH)]SAFL[PyrS2″][3Thi][Bta][tBuAla]-NH2 (staple 1-4, 4-11) [I-2195]

Target: T3, B-cat-Halo (beta-catenin HaloTag fusion …)
Test: cell-based or functional assay

NanoBRET Abs IC50 | Binder
19.6 µM | Ac-[αAllylPro]D[tBuAla][B5(4)]D[Phe(3-COOH)][Aib]AF[Nle][PyrS2″][3Thi][Bta][(4F3CPip)GlnR]-NH2 (staple 1-4, 4-11) [I-2557]
8.2 µM | Ac-[αAllylPro]D[tBuAla][B5(4)]D[Phe(3-COOH)][Aib]AF[Nle][PyrS2″][3Thi][Bta][(Morph)GlnR″]-NH2 (staple 1-4, 4-11) [I-2553]
19.3 µM | Ac-[αAllylPro]D[tBuAla][B5(4)]D[Phe(3-COOH)][Aib]AF[Abu][PyrS2″][3Thi][Bta][(4Pippip)GlnR″]-NH2 (staple 1-4, 4-11) [I-2560]
14.7 µM | Ac-[αAllylPro]D[tBuAla][B5(4)]D[Phe(3-COOH)][Aib]AF[Abu][PyrS2″][3Thi][Bta][(Morph)GlnR″]-NH2 (staple 1-4, 4-11) [I-2558]
3.8 µM | Ac-[αAllylPro]D[tBuAla][B5(4)]D[Phe(3-COOH)][Aib]AF[Abu][PyrS2″][3Thi][Bta][(bismethoxyethylamine)GlnR]-NH2 (staple 1-4, 4-11) [I-2559]
7 µM | Ac-[αAllylPro]D[tBuAla][B5(4)]D[Phe(3-COOH)][Aib]AF[Nle][PyrS2″][3Thi][Bta][(AcPpz)GlnR]-NH2 (staple 1-4, 4-11) [I-2556]
22.1 µM | Ac-[αAllylPro]D[tBuAla][B5(4)]D[Phe(3-COOH)][Aib]AF[Nle][PyrS2″][3Thi][Bta][(4Pippip)GlnR]-NH2 (staple 1-4, 4-11) [I-2555]
3.3 µM | Ac-[αAllylPro]D[tBuAla][B5(4)]D[Phe(3-COOH)][Aib]AF[Nle][PyrS2″][3Thi][Bta][(bismethoxyethylamine)GlnR]-NH2 (staple 1-4, 4-11) [I-2554]
